This experiment has as its target T1, human CD98hc (SLC3A2), heavy subunit of the Asc1/CD98hc heterodimer (human, UniProt P08195-2 1-529, N-glycosylation at residues 264, 280, 323 and 405; disulfide bridge from Cys 109 to Cys 154 of Asc1).
T1 construct: CD98hc (SLC3A2), human; residues 61-529 were modelled and the disulfide cysteine is numbered C109, which fits the 529-residue isoform (isoform f is named only for the HeLa construct); also called heavy chain; ancillary subunit; source: HEK293-6E, co-transfected with Asc1, purified as heterodimer in digitonin (Ni-NTA, size exclusion chromatography)
T1 sequence: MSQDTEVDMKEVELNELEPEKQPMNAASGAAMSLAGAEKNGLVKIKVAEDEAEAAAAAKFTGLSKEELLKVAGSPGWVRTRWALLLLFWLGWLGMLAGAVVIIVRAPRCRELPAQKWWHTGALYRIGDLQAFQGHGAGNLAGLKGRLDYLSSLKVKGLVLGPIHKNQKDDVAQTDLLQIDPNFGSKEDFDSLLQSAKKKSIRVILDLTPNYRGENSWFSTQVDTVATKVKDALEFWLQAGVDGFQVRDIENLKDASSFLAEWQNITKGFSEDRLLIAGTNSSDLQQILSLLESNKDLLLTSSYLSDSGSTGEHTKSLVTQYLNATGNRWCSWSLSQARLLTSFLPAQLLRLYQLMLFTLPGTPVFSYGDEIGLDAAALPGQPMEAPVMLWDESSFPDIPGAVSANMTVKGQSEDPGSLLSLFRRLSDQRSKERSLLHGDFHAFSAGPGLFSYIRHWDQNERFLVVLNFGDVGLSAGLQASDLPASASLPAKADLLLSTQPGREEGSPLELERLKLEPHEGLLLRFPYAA
The experiment can be described thus: cryo-EM structure; heterodimer co-expressed in HEK293-6E, solubilised in 1% digitonin, purified by Ni-NTA and Superdex200 in 20 mM Tris-HCl pH 8.0, 150 mM NaCl, 0.1% digitonin; 1.2-1.5 mg/ml, 10 mM D-Ser added before vitrification (no ligand density found). Conditions: both partners purified.

This is an account of results in paper PMC10998858, “Structure and mechanisms of transport of human Asc1/CD98hc amino acid transporter” (Nature Communications, 2024).

B1: human Asc1 (SLC7A10), light subunit of the Asc1/CD98hc heterodimer (natural protein)
chain: MAGHTQQPSGRGNPRPAPSPSPVPGTVPGASERVALKKEIGLLSACTIIIGNIIGSGIFISPKGVLEHSGSVGLALFVWVLGGGVTALGSLCYAELGVAIPKSGGDYAYVTEIFGGLAGFLLLWSAVLIMYPTSLAVISMTFSNYVLQPVFPNCIPPTTASRVLSMACLMLLTWVNSSSVRWATRIQDMFTGGKLLALSLIIGVGLLQIFQGHFEELRPSNAFAFWMTPSVGHLALAFLQGSFAFSGWNFLNYVTEEMVDARKNLPRAIFISIPLVTFVYTFTNIAYFTAMSPQELLSSNAVAVTFGEKLLGYFSWVMPVSVALSTFGGINGYLFTYSRLCFSGAREGHLPSLLAMIHVRHCTPIPALLVCCGATAVIMLVGDTYTLINYVSFINYLCYGVTILGLLLLRWRRPALHRPIKVNLLIPVAYLVFWAFLLVFSFISEPMVCGVGVIIILTGVPIFFLGVFWRSKPKCVHRLTESMTHWGQELCFVVYPQDAPEEEENGPCPPSLLPATDKPSKPQ
modifications: disulfide bridge from Cys 154 to Cys 109 of CD98hc
notes: Asc1 (SLC7A10), human; residues 41-489 were modelled in the cryoEM map; The final construct has no GFP; a version with C-terminal eGFP was used only in preliminary trials; also called hAsc1; light chain; source: HEK293-6E, co-transfected with CD98hc, purified as heterodimer in digitonin (Ni-NTA, size exclusion chromatography); not shown: 6xHis, C-terminal, kept
Regarding B1, the binding result is “binds”.
